Values of other authors, collected in PMC2818086.

tested on: His64; test: kinetics; settings: 25 °C; free enzyme in solution during catalysis (zinc-loaded)

First: Carbonic anhydrase II (HCA II) N62A (Homo sapiens; N62A)
Second: Carbonic anhydrase II (HCA II) N62D (Homo sapiens; N62D)
The pKa of the first is lower: 6.2 for the first, 8.4 for the second.

Compared with “Carbonic anhydrase II (HCA II) N62L (Homo sapiens; N62L)”, “Carbonic anhydrase II (HCA II) N62T (Homo sapiens; N62T)” is higher in pKa: 6.0 for the first, 7.0 for the second.

First: Carbonic anhydrase II (HCA II) N62V (Homo sapiens; N62V)
Second: Carbonic anhydrase II (HCA II) N67L (Homo sapiens; N67L)
The pKa of the first is lower: 5.9 for the first, 7.5 for the second.

Compared with “Carbonic anhydrase II (HCA II) Y7F (Homo sapiens; Y7F)”, “Carbonic anhydrase II (HCA II), wild type (Homo sapiens)” is higher in pKa: 6.0 for the first, 7.2 for the second.
